According to US20210070876A1 (LES LABORATOIRES SERVIER, published 2021):

Key:
[1] = target: T1, His-tagged human CD73 ECD (human, UniProt P21589 27-549); assay: SEC-MALS, mAb:CD73 1:1
T1 construct: runs as a homodimer of about 124-125 kDa in SEC-MALS; also called CD73-His; CD73-His ECD antigen
T1 sequence: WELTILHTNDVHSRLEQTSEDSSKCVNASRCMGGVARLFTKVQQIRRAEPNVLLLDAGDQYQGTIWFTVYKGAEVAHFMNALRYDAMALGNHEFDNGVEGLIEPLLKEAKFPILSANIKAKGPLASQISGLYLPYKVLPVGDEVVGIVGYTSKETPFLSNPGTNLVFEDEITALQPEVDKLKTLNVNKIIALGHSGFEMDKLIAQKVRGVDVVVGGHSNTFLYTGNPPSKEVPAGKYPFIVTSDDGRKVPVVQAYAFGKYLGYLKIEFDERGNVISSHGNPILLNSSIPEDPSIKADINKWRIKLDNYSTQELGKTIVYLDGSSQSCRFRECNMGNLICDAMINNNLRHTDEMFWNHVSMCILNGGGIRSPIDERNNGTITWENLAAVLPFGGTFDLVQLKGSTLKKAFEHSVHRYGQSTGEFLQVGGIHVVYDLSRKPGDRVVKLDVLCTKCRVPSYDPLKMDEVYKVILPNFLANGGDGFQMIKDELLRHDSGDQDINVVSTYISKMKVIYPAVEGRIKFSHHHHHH
Description: (§1) Anti-CD73 antibodies and His-tagged CD73 were analyzed in different ratios as well as individually to analyze the size of complexes formed between CD73 homodimer and anti-CD73 antibodies. Samples were prepared by mixing […] of CD73-His with 900, 450, 90 or 0 μmol of antibody diluted into PBS, pH 7.4. Samples were incubated for 30 min at room temperature followed by separation using a UHPLC UltiMate 3000 (Thermo Scientific) and SEC X-Bridge column (Waters) at a flow rate of 1.2 mL/min. Sample running buffer was 0.01 M Citrate, 250 mM L-Arginine.HCl, pH 6.0. Following HPLC separation, all samples were analyzed using a MiniDAWN TREOS MALS detector (Wyatt) and Optilab T-rEX refractive index detector (Wyatt). Data plots were generated using Graph Pad Prism.

[2] = target: T2, cynomolgus CD73 expressed on cells (cynomolgus monkey (Macaca fascicularis), UniProt A0A2K5V5U7 27-549); assay: flow cytometry on CHO-S cells transiently expressing cynomolgus CD73, AF647 anti-human IgG (H+L) secondary, GeoMean
T2 construct: whole, on cells; also called cynomolgus CD73 on CHO-S cells; CD73 on Cynom-K1 cells
T2 sequence: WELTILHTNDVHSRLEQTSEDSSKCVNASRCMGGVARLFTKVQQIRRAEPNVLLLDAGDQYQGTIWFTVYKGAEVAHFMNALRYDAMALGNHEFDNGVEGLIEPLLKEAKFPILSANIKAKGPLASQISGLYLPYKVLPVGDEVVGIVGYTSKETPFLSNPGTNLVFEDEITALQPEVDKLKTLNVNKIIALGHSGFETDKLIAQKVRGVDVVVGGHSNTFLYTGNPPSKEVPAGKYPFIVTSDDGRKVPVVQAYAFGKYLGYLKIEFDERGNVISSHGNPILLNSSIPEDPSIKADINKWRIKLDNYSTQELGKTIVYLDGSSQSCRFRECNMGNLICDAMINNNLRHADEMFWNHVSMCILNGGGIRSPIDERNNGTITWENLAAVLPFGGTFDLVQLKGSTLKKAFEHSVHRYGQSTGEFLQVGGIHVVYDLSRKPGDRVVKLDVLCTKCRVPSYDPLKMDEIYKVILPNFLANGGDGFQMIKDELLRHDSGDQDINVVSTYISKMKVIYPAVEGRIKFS
Description: The anti-CD73 antibodies were incubated with the hamster CHO-S cell line transiently expressing human or cynomolgus CD73 for 30 minutes at 4° C. The cells were washed twice and subsequently incubated for an additional 20 minutes with AF647-conjugated secondary anti-human IgG (H+L) antibody. After the washing step, antibody binding was detected using the high-throughput flow cytometer iQue Screener PLUS (Sartorius) measuring the GeoMean of AF647 signal in each well. Every concentration was assayed in triplicate and a 12-point titration curve was generated for each antibody.

[3] = target: T1, His-tagged human CD73 ECD; assay: SEC-MALS, mAb:CD73 0.1:1
Description: as §1

mouse CD73 = target: T3, mouse CD73 (mouse, UniProt Q61503 29-549, limits assumed); assay: not described (statement in the methods of Example 22)
T3 construct: Only named in a sentence on cross-reactivity
T3 sequence (looked up): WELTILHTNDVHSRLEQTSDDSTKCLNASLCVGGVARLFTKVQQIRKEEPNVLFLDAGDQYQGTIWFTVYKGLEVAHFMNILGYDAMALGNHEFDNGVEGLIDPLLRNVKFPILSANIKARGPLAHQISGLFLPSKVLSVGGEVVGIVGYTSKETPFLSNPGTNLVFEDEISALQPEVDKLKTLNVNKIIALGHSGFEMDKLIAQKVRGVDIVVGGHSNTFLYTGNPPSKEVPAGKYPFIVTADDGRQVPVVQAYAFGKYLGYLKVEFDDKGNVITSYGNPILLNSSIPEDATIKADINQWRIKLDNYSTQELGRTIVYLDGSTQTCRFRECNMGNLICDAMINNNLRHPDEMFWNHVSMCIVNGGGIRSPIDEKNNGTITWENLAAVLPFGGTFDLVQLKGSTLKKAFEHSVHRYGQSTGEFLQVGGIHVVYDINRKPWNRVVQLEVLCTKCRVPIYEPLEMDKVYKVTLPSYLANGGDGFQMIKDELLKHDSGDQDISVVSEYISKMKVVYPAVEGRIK

B1: antibody 21127 (antibody, human IgG1, kappa, L234A L235A, V domains shown)
VH: EVQLVESGGGLVQPGRSLRLSCAASGFTFDDFAMHWVRQAPGKGLEWVSGISWNSGNIGYADSVKGRFTISRDNAKNSLYLQMNSLRAEDTALYYCAKDKSGSPYYYYGMDVWGQGTMVTVSS
VL: DIQMTQSPSSVSASVGDRVTITCRATQGISRRLAWYQQKPGKAPKLLIYAASSLQSGVPSRFSGSGSGTDFTLTISSLQPEDFATYYCQQANSFPLTFGGGTKVEIKR
notes: Fully human IgG1-LALA (L234A/L235A), kappa
molecular mass of complex, Peak 2 (MW, kDa) [1]: 269 kDa
EC50 (read off the curve) [2]: ~4 ng/mL
molecular mass of complex, Peak 2 (MW, kDa) [3]: 282 kDa
binding result (mouse CD73): no binding
